The nature of the series: label from the status in PepcDB records.
For the sequence “MRQVFSTDQEYKADKSPENLFPLTEVTRKMEYEERFDQAVRVTGVGLFVNLGLTIFKLLAGILGNSTAMVADAVHSLSDFLTDVVVIFGFKIAKKPVDESHNYGHGKIETLSASLVGLMLLLVAGQILYYGVQKTLMFIEAGTLEQPAIIALYAALASVISKEIMYQYTILKARKINSMALTANAWHHRSDAFSSFCTMIGIGAAVFLGGKWVVLDPLMAVFLSFIILKVSLKIFHSSINELVEASLDEKTESEIRQIIQKTEGVKALSNLKTRRIGNNIAVDIRIKVDNALDIGEANRISIHVEHNLKKAFGPYTYVLVKAEPYEREPWGNPEDEKAREHPVNPEKNKVCLRNHSN”, the protein production entry is on record as “failed”.

Regarding “MFTQRKKWLSGVAAGLLMAASVSASAEEKILHIYNWSDYIAPDTLANFQKETGIKVVYDVFDSNEVLEGKLMAGSTGFDLVVPSASFLERQLSAGVFKPLDKSKLPNEKNLDPELLALVSKHDPDNKYAIPYLWATTGIGYNVEKVKAVLGEDAPVNSWDLVLKPENLEKLKSCGVSFLDAPSEIFATVLNYLGKDPNSTLTADYTGSATDLLLKLRPNIRYFHSSQYINDLANGDICVAVGWAGDIMQASNRAKEAKNGVNVAYSIPKEGALAFFDVFAMPTDAKNQDEAYQFLNYLMRPDVIANISNHVFYANANQAATPLVNAEVRDNPGIYPPADVRAKMFTLKVQDPKIDRVITRAWTKVKSGK”, the protein production entry is “failed”.

On to “MDWLLTPGPVRLHPKALEALARPQLHHRTEAAREVFLKARGLLREAFRTEGEVLILTGSGTLAMEALVKNLFAPGERVLVPVYGKFSERFYEIALEAGLVVERLDYPYGDTPRPEDVAKEGYAGLLLVHSETSTGALADLPALARAFKEKNPEGLVGADMVTSLLVGEVALEAMGVDAAASGSQKGLMCPPGLGFVALSPRALERLKPRGYYLDLARELKAQKEGESAWTPAINLVLAVAAVLEEVLPRLEEHLALKAWQNALLYGVGEEGGLRPVPKRFSPAVAAFYLPEGVPYARVKEAFAQRGAVIAGGQGPLKGKVFRLSLMGAYDRYEALGVAGMFREVLEEILPAS”, for which the protein production result is “not failed”.

With “MKDSAQNFSTEKTGLKPVIRKIYDCLFDSYGPQGWWPLTELREAEGTNPTKTGSVQGYHPADYTYPQTRNQRFEIICGALLTQNTSWIQVEKALLNLKDLLSLKQINSFSPETIISLDTEILKEAIRPAGYYNQKAMRLKNLACWFLELENRIPARKELLSLKGVGPETADSILLYAFKQPSFVVDAYTKRIVTNLGLADEKAGYNEIKALFEENLPEDTTVYQEYHALLVEHAKRYYQKKSIRTNDIILKHVF”, the protein production result is recorded as “failed”.

Regarding “MRVVALVPGGIGDQILFFPTLDDLKRYYPNAQLDVVVEPRSKAAYRVSKSVNDILTFDYKDRNSLADWGNLVGTIRDREYDVVITVGQSWLVGLFLWLTGIPTRIGYQGKGRSFLTKTVPFKPSQYAAAVYHDLLAPIGITTPTPELEHHHHHH”, the protein production entry was “failed”.

As to “QVKSERSQKIFLEFVSANPTGPLHIGHARGAVFGDSLAKIARFLGHEVLCEYYVNDMGSQIRLLGLSVWLAYREHVLKESVTYPEVFYKGEYIIEIAKKANNDLEPSLLKENEETIIEVLSGYARDLMLLEIKDNLDALGIHFDSYASEKEVFKHKDAVFEQLEKANALYEKDSKIWLKSSLYQDESDRVLIKEDKSYTYLAGDIVYHDEKFKQDYTKYINIWGADHHGYIARVKASLEFLGYDSNKLEVLLAQMVRLLKDNEPYKMSKRAGNFILIKDVVDDVGKDALRFIFLSKRLDTHLEFDVNTLKKQDSSNPIYYIHYANSRIHTMLEKSPFSKEEVLQTP”, the protein production result is recorded as “failed”.

For the sequence “MPSEAFRRHRAYRENKLQPLVSVLICAYNVEKYFAQSLAAVVNQTWRNLDILIVDDGSTDGTLAIAQRFQEQDGRIRILAQPRNSGLIPSLNIGLDELAKSGGGGEYIARTDADDIAAPDWIEKIVGEMEKDRSIIAMGAWLEVLSEEKDGNRLARHHEHGKIWKKPTRHEDIADFFPFGNPIHNNTMIMRRSVIDGGLRYNTERDWAEDYQFWYDVSKLGRLAYYPEALVKYRLHANQVSSKYSIRQHEIAQGIQKTARNDFLQSMGFKTRFDSLEYRQIKAVAYELLEKHLPEEDFERARRFLYQCFKRTDTLPAGAWLDFAADGRMRRLFTLRQYFGILHRLLKNR”, the protein production entry is given as “failed”.

With “MDTPPTVFSIIIPVYNRPDEVRELLESLLIQTNSDFEVIIVEDGSSVCCDKEVDRVRELLRIQYVRVPNGGPAAARNIGARMAVGEYLLILDSDVVLPSGYIAAVKKRIEQMQADAFGGPDAAAEGFSPIQKAINYAMTSFFTTGGIRGGRRVRLDKFYPRSFNFGCKLSVYRQLGGFSEEMRFGEDIDFSLRLFKAGYNVCLFPEAFVFHKRRIDFKKFFRQVYNSGIARIHLQRRHPGSMKPVHILPALFTLGSVILAVGQFFCPWSLLPLLLLALLFLLDAWHTNRSLRIAILAVPASFVQLWGYGSGFLVACWRCYVLGHQEFRAFDKTFYN”, the protein production entry is recorded as “failed”.

For “MEFCPKCKSLMIYQGDKLVCRKCGYEKEADDSEELVIKVERNKEDVPVIEGENLKTLPTTKAICPACGHNEAFWWLRQLRAADESEVRFFRCTKCGKTWREYD”, the protein production result is “failed”.

In the case of “MRKPIEHTADIAYEISGNSYEELLEEARNILLEEEGIVLDTEEKEKMYPLEETEDAFFDTVNDWILEISKGWAPWRIKREGNELKVTFRKIRKKEGTEIKALTYHLLKFERDGDVLKTKVVFDT”, the protein production entry is “not failed”.

Take “MEEHNANPLRFETNPYHNIVIKDRKVMELTGVKQIDSFDANEFLLETAQGWLMIQGKDLKLGKLDTERGDVIINGIIEALSYVSNKKGTAKETMMSKLFR”: the protein production entry is given as “failed”.

Regarding “MWHSIEQAISVETGKSFYISEKKEISTRPASSSSFTCSYDNKEPPPNLSFKITDGHRSYFLKINNKDYLENFQAEAYSLKQLNSLANIASPNVTAIGTSLDKSFLVLDYIDFSKAKPMLWYQLGQQLAQMHYENRHGQFGWQHDNFIGSTIQPNHWSSNWTTFFSDQRIAWQLQLLSERSIMLGNIEHITQVCHDALLHHQVSPCLVHGDLWQGNTGFSGEKAMIFDPACYYGDREVDIAMTELFGHFPDDFYHGYQAEYPLDDGYEQRKLVYNFYHILNHANIFGGIYIDQAKATLSRIMSLPLHLEHHHHHH”, the protein production entry was “failed”.

Take “MYINHAAEMLLCNSSVVVRCRATRGVSESLARPGGVTMHKRLTEETHHSAGSPEQPEIAGLHRELAEARQALETLYAALDNVDAGLLILNEELRAVYSNPVLHVMFRANSAEEIRQNRPLYAEMLAASAQAVAVNLEDYVSRRLAWVQSGDPKPMDLAMTDGTALRCHLAVLPGGGRMLIYSDVTDIVRNAEELERLATTDGMTGVYNRRHFLTLADREWSRARRYERPMSFLMIDIDYFKAINDGFGHQVGDEMIVHLARLARDCKRDCDVLARLGGEEFALLLPETDLAQAEVVAERLRREVAGNALVVASHAIPATVSIGVATALPGMKDVSDLMKAADQALYDAKHAGRNRVICRACHDPAPTLVPALTPRCEAATMR”: the protein production entry is reported as “failed”.

“MPTINQLIRYGRKPKKKKSKAPALQGNPQKRGVCIKVSTMTPKKPNSALRKIARVRLSNGIEVTAYIPGIGHNLQEHSVVLVRGGRVKDLPGVRYKIIRGALDAAGVEGRRQSRSKYGAKRPKDQKK”: the protein production entry is on record as “failed”.

“MSLAEVGSKSVLFVCLGNICRSPIAEAVFRKLVTDEKVSDNWAIDSSAVSDWNVGRPPDPRAVSCLRNHGISTAHKARQITKEDFATFDYILCMDESNLRDLNRKSNQVKNCKAKIELLGSYDPQKQLIIEDPYYGNDSDFEVVYQQCLRCCKAFLEKTYEGHHHHHH”: the protein production result is listed as “not failed”.

As to “MEKTIIAALLMLISLISYAQGLMWTAKAELNMSSMSNVEESKMHPGFYAGIGAGYVIDETRSVRPSLLFTMKGVKQDYKF”, the protein production entry is recorded as “failed”.

With “TNPQAVIGDSPTTSATQSKAVVVEFSDFQCPYCAKAHDTLKQLLAKHPGEITLVYKHLPLIPIHNEAMPAAKAAWAATQQGKFWEYHDALFSNQKQLGEALYLDIAKKLNLDLEKFNSDRLLADAAISKDIQIAQKLAIAGTPFFIMNSKTFSGGIDLSEIENKL”, the protein production entry is recorded as “failed”.

With “MTGTRIAIGICTFRRPGIAATLASLGALRWPEGMSGLVIVADNDETPSARETVHAAAKGLPLPVCYLHAPARNISVARNAILEAAGARGLERLAFLDDDEMVEPGWIEALTEALARTGAEAVLGPVRAEHGAEAPAWMRESAIHDTRPTFLPDGSIKSGYSCNVLMDLTAPALEGLRFDPERGRSGGEDTAFFEAMLRRGGRLGFAPDALVRETVPADRARLGWLLRRRFRMGQTHASLIAGPGRAQRAKQALVALSKVAACSGMALAAVHDPLRRNNALLRGALHVGTLSALFGARPITIYGGTGPAPSTFDSKTDSYLVSRSRT”, the protein production result is listed as “failed”.

For “MNNDISIAALIVTYNPDKRLIESLTKLEKLVDFVVIVDNNSNKSPVLDYISNNIFNDRYLIQLEDNLGIAYALNTGIKYILEKGHYDYILTLDQDTVPLIDDIKELIKRANSIYSNIGIIALISKMDPKIPEFTDVKFPMTSGNIVKSEIFKYIKYREEFFIDSVDFDFDYNVRMHGYRIIQYNYRAIDHNVGITKNGFPYESSERLYYIIRNSTVLFGENKITFRMYIFQAFYWITMGLIHWEILKTAKSSVKGFKDGVNKKLGKNNDI”, the protein production entry was “failed”.

In the case of “MPNHQPVKKFKIIGGACKGLGLNLPNISSTRPTKAIVRESFFNTLQAEINGAHFIEVFSGSASMGLEALSRGAKSAVFFEQNKSAYKTLLENISLFKNRLKKEMEIQTFLDDAFKLLPTLCLKNGVLNIIYLDPPFETSGFLGIYEKCFQALERLLKRFNPKNLLVVFEHESMHEMPKSLVTLAIIKQKKFGKTTLTYFQ”, the protein production entry was “failed”.

As to “EQVFQGKLTTVGNPKGNVTLVEFFDYQCIHCKKMASTIENLVKKDSGLRVIYKEFPIFGKTSDLASRVALAAGMQGKYQAMHNALITIDKRLDEKTVMDAAKSIGLDMQKLKKDMDSQEVTDILDANRQLAEKLHLMGTPAFIIGSTPDGQYKKGSEISFIPGATSEQSLRELIKKAAGN”, the protein production entry was “failed”.

Turning to “MSDINTVNLINQMKTLAAQAEGIKPDSGLNHASFSSVFQQALNQVNELSQTADSLKTRFEIGDPNVSLGEVMIASQKSNLGFEATLRVRNKLVQAYQDIMNMPV”, the protein production entry is reported as “failed”.

“MFTTVITPRVSETDGVGHINNTTVPVWFEAGRHEIFKLFTPDLSFKRWRMVIIRMEVDYVNQMYYGQDVTVYTGIERIGNTSLTIYEEIHQNGVVCAKGRSVYVNFNFDTGRPEPIPDDIRVKLREHVWQPGE”: the protein production result is on record as “not failed”.

As for “MITMTEVKGKTANESRVFKTSRVFPTDLNDHNTLFGGKILSEMDMVASISASRHSRKECVTASMDWVDFLHPVRSSDCVSYESFVIWTGRTSMEVFVKVVSEYLISGEKRIAATSFVTFVALSKENNPVPVPRVIPDTEEEKESHRIAVLRAEQRHIRKAESKKVATLLTF”, the protein production result was “not failed”.

For the sequence “MGGGRQILHTLEQDVYFSHAHRVEIPASVTAHLFYQHFGYRPKPGGIYPDDEGLYRLEKFPHESFH”, the protein production entry is listed as “failed”.

As to “MIGYVLNGEHEEIPYGELMALLEIFNYNGSVERLKRYVITEDSPAKDIVKRSGYIDEGHRIIFRYNLEEKSVDLVDKIVNDFINSFKDFVANIDYPDIDESKSYAVRVLKLHKDEFTKSIDSLRIEKEIGGIIKLKTNAKVNLTKPDILVRVVILENTFFISNVLEMRDREYFQKNRPHLRKYFHPGCMLPKLARAMVNLARVKEGDIVLDPFCGTGGFLIEAGLIGAKLIGCDIDWRMASGTLINLEEYNLLDKVIKVKRLDAKYVKEFLNELNIEKVDAIVTDPPYGISTAKKGEIEKILETLPEVIKDNGYFVFAYPKKIELDMELEGLYKVYIHKGLIRHIHVYKKI”, the protein production result is “failed”.

(Values after a protein production outcome set (Wang et al. 2014).)
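Also: failed if final PepcDB status was selected cloned or expressed and not failed if soluble or beyond.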
